# Source: patent US20210324050A1 (VANDERBILT UNIVERSITY, published 2021)
# T1: GII.4 Sydney 2012 shell (S) domain (human norovirus GII.4 Sydney 2012, UniProt P54635 1-221 (Lordsdale virus entry), limits assumed)
# T1 construct: Recombinant S domain particles (pVL1392, baculovirus, Sf9); the whole VP1 entry is named; also called GII.4 S domain
# T1 chain: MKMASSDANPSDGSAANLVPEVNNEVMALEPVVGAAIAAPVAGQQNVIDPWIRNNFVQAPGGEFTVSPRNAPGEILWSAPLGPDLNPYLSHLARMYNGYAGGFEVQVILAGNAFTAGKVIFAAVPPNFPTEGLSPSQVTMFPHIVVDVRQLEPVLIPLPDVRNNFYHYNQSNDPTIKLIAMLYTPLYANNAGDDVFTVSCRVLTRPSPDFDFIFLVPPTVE
# T2: GI.1 (M87661) VLPs (norovirus GI.1, UniProt Q83884 1-530; Q83885 1-212)
# T2 sequence (VP1): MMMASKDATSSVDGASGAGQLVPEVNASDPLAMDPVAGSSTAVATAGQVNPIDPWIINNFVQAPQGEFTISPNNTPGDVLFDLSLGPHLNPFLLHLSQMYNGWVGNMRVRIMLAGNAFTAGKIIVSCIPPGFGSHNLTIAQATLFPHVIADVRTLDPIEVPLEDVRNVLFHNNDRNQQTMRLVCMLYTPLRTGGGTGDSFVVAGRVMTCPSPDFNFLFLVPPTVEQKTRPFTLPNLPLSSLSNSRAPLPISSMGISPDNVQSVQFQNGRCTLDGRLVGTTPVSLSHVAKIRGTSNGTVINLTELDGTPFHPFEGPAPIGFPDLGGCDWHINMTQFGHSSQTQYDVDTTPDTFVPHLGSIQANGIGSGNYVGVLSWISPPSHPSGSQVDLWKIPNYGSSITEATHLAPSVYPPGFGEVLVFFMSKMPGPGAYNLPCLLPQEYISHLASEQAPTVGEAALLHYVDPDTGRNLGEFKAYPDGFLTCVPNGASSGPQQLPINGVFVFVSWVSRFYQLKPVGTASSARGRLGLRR
# T2 sequence (VP2): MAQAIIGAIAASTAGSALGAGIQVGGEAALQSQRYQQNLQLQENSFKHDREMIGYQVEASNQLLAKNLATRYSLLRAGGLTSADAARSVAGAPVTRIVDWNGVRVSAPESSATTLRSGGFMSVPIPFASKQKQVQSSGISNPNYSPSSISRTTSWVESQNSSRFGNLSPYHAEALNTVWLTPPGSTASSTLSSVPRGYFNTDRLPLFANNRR
# T3: GII.4 Houston 2002 (ABY27560.1) VLPs (human norovirus GII.4 Houston 2002, UniProt P54635 1-539)
# T3 construct: also called GII.4 Houston 2002 antigen; GII.4 Houston VLPs
# T3 chain: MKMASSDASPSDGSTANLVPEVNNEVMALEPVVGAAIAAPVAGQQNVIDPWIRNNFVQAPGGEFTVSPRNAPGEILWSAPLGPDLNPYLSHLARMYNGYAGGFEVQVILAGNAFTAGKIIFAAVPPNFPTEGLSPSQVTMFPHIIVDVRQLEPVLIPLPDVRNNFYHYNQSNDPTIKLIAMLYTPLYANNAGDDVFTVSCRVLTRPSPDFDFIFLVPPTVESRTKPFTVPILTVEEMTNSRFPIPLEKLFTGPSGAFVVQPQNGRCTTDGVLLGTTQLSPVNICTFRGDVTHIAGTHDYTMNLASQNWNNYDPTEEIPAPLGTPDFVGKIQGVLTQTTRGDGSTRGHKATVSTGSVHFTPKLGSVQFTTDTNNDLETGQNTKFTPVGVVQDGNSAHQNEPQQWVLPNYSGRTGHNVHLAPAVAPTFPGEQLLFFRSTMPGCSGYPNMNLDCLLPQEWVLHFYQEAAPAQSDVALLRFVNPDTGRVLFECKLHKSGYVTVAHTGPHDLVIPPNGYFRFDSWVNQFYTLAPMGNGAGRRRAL
# T4: GII.4 Sydney 2012 virus-like particles (VLPs), based on strain AFV08795.1 (human norovirus GII.4 Sydney 2012, UniProt P54635 1-538)
# T4 construct: also called GII.4 VLPs
# T4 chain: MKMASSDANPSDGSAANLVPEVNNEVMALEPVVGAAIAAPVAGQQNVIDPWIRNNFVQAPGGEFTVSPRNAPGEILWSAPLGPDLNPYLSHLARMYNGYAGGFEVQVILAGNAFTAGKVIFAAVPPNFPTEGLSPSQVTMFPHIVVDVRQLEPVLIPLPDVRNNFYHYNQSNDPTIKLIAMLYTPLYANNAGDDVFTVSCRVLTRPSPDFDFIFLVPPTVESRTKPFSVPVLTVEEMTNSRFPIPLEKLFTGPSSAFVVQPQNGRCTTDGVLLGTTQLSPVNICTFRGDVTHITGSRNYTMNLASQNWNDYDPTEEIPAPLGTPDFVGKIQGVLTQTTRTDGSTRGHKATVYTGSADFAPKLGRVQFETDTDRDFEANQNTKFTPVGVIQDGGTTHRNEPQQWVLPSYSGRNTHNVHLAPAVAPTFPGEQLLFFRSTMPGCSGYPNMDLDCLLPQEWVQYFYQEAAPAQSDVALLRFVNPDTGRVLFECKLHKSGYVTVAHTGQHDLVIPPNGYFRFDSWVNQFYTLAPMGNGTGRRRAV
# B1: NORO-156.3 (antibody, V domains shown)
# VH: QVQLQQWGAGLLKPSETLSLTCAVYGGSFSGYYWSWIRQPPGKGLEWIGEINHSGSTNYNPSLKSRVTISVDTSKNQFSLKLSSVTAADTAVYYCARGLMDVWGQGTLVTVSS
# VL: AIRMTQSPSSFSASTGDRVTITCRASQGISSYLAWYQQKPGKAPKLLIYAASTLQSGVPSRFSGSGSGTDFTLTISCLQSEDFATYYCQQYYSYPRTFGQGTKLEIK
# B2: NORO-202A.1 (antibody, V domains shown)
# VH: QVQLVQSGAEVKKPGASVKVSCKASEYTFTGYYLQWVRQAPGHGLEWMGWINPSGGTKYSQKFQGRVTMTRDTSITTVYMELSRLRSDDTAVYYCARDLLRNWGDHDAFDVWGQGTMVTVSS
# VL: QSVLTQPPSASETPGQGVTISCSGSSSNIGSNFVCWYQQVPGTAPKLLIYKNNQRPSGVPDRFSGSKSGTSASLAISGLRSEDEADYYCSAWDDSLSGPVFGGGTKLTVL
# B3: NORO-115 (antibody, V domains shown)
# VH: QVQLVESGGGLVKPGGSLRLSCTASGITISGYYMSWIRQAPGKGLEWIVYINTSGRTIYYADSVKGRFSVSRDNAKESLYLQMDSLTVDDTGIYYCARDRLPASGSHWFHPWGQGTLVTVSS
# VL: DIVMTQSPDSLAVSLGGRATINCKSSQSVLYTSDNKNYLAWYQQQPGQPPKLLISWASTRESGVPDRFSGSGSGTDFTLTISNLQAEDVAVYYCQQYYNSPLAFGGGTKVEIK
# How the values were obtained:
# [1] = target: T1, GII.4 Sydney 2012 shell (S) domain; experiment: indirect ELISA on recombinant P and S domains
# GI.1 (M87661) VLPs = target: T2, GI.1 (M87661) VLPs; experiment: indirect ELISA on VLPs
# [2] = target: T3, GII.4 Houston 2002 (ABY27560.1) VLPs; experiment: ELISA on GII.4 Houston 2002 VLPs
# [3] = target: T4, GII.4 Sydney 2012 virus-like particles …; experiment: indirect ELISA on coated GII.4 Sydney 2012 VLPs
# [4] = target: T3, GII.4 Houston 2002 (ABY27560.1) VLPs; experiment: ELISA on GII.4 Houston 2002 VLPs against ELISA on GII.4 Sydney 2012 VLPs
Binder,binding result [1],binding result (GI.1 (M87661) VLPs),binding result [2],EC50 [3] [µg/mL],fold higher binding EC50 compared to GII.4 Sydney 2012 VLPs [4] [fold]
B1,no binding (tested: 500 nM),binds,,,
B2,,no binding (tested: 500 nM),binds,0.4,
B3,,,,,> 10
